Laboratory results: article doi:10.64898/2025.12.11.693838 (bioRxiv, 2025)

B1: N-terminal β-flap deletion mutant of SaTpx (NΔ15-SaTpx) (domain or fragment, UniProt Q2FXL3 16-164, looked up)
chain: QQINEGDFAPDFTVLDNDLNQVTLADYAGKKKLISVVPSIDTGVCDQQTRKFNSDASKEEGIVLTISADLPFAQKRWCASAGLDNVITLSDHRDLSFGENYGVVMEELRLLARAVFVLDADNKVVYKEIVSEGTDFPDFDAALAAYKNI
B2: Staphylococcal atypical 2-Cys peroxiredoxin / thiol peroxidase, wild type (WT-SaTpx) (enzyme, UniProt Q2FXL3 1-164, looked up)
chain: MTEITFKGGPIHLKGQQINEGDFAPDFTVLDNDLNQVTLADYAGKKKLISVVPSIDTGVCDQQTRKFNSDASKEEGIVLTISADLPFAQKRWCASAGLDNVITLSDHRDLSFGENYGVVMEELRLLARAVFVLDADNKVVYKEIVSEGTDFPDFDAALAAYKNI

Molecular target: the molecule itself
Test: crystal structure

| Protein | stoichiometry N |
| --- | --- |
| B1 | 2 |
| B2 | 2 |
